Paper PMC2191977 (The Journal of Experimental Medicine, 1995)

Biological target: B7 QDP/LEK (mouse) (UniProt Q00609)
Assay: flow cytometry on cells

CTLA4Ig, sequence (P09793 36-161): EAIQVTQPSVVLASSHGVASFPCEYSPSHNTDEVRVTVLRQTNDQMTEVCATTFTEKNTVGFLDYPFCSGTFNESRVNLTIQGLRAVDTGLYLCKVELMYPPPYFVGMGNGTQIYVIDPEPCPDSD

“CTLA4Ig (from UniProt P09793 36-161) (Fc fusion)” was tested, and the % wild-type B7 binding (normalised to anti-B7 mAb 10.16A.1) was 15% and the MF (mean fluorescence, control subtracted) was 42 MF.
